Here are results for 28 variants from the supplement of paper PMC7125110.

B1: glmS ribozyme (parent)
chain: AUAAAAGCGCCAGAACUACAGAAAUGUAGUUGACGAGGAGGAGGUUUAUCGAAUUUUCGGCGGAUGCCUCCAAA

What all share (settings): with glucosamine-6-phosphate
Variants of B1 are the subject of data set [1]. Kind of data set: self-cleavage kobs at 40 uM GlcN6P; higher = faster cleavage; RNA array. The procedure, abridged: (§1)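 Barcoded ribozyme variants were transcribed in situ on sequenced MiSeq chips by E. coli RNA polymerase. At 37 °C, a hybridised Cy3 probe tracked them while glucosamine-6-phosphate (40 μM to 10 mM) in HEPES/KCl/Mg(OAc)2 buffer flowed in and tiles were imaged over ~14 h. Per-tile medians of signals normalised to baseline and to non-cleaving reference variants were fit to one- or two-exponential decays, giving kobs. kcat and KM came from weighted Michaelis–Menten fits across concentrations.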

The variants in data set [2] derive from B1. Kind of data set: self-cleavage kobs at 160 uM GlcN6P; higher = faster cleavage; RNA array. The procedure, abridged: as §1
In data set [3] the parent is B1. As to the kind of experiment: self-cleavage kobs at 10000 uM GlcN6P; higher = faster cleavage; RNA array. Put shortly: as §1
Variants of B1 are the subject of data set [4]. As to the kind of experiment: self-cleavage kobs at 640 uM GlcN6P; higher = faster cleavage; RNA array. Put shortly:
as §1

Data set [5] covers variants of B1. Kind of data set: self-cleavage kobs at 2500 uM GlcN6P; higher = faster cleavage; RNA array. The procedure, abridged:
as §1

± gives the standard error. This sample holds only a part of the variants without activity. Where only a bound is given, the exact number is not on record here.

Turning to G29C U65C, in data set [1], the “self-cleavage kobs at 40 uM GlcN6P” value is under 1e-05 s⁻¹. The “self-cleavage kobs at 160 uM GlcN6P” value in data set [2] is under 1e-05 s⁻¹.

For G44U C50G A53U G59A C68A, the “self-cleavage kobs at 40 uM GlcN6P” value in data set [1] was under 1e-05 s⁻¹.

Take G7U C8G U47G C58U C61G U69G: the “self-cleavage kobs at 40 uM GlcN6P” value in data set [1] is 0.000436 ± 0.00012 s⁻¹. The “self-cleavage kobs at 10000 uM GlcN6P” value in data set [3] was found to be 0.000464 ± 0.00012 s⁻¹.

For U31G A33G U56C, the “self-cleavage kobs at 40 uM GlcN6P” value in data set [1] is under 1e-05 s⁻¹. In addition, in data set [2], the “self-cleavage kobs at 160 uM GlcN6P” value was under 1e-05 s⁻¹. In addition, in data set [4], the “self-cleavage kobs at 640 uM GlcN6P” value was under 1e-05 s⁻¹. The “self-cleavage kobs at 2500 uM GlcN6P” value in data set [5] was under 1e-05 s⁻¹.

In the case of C16U U54C, the “self-cleavage kobs at 40 uM GlcN6P” value in data set [1] amounted to 0.000813 ± 0.00013 s⁻¹. The “self-cleavage kobs at 160 uM GlcN6P” value in data set [2] is 0.00146 ± 0.00024 s⁻¹. In data set [4], the “self-cleavage kobs at 640 uM GlcN6P” value worked out at 0.00641 ± 0.001 s⁻¹. In data set [5], the “self-cleavage kobs at 2500 uM GlcN6P” value turned out to be 0.00606 ± 0.0012 s⁻¹. For the same variant, the “self-cleavage kobs at 10000 uM GlcN6P” value in data set [3] was 0.0254 ± 0.0047 s⁻¹.

For U56C G59A, the “self-cleavage kobs at 40 uM GlcN6P” value in data set [1] is under 1e-05 s⁻¹.

Take C16U G63U G66A: in data set [1], the “self-cleavage kobs at 40 uM GlcN6P” value is under 1e-05 s⁻¹. In addition, the “self-cleavage kobs at 10000 uM GlcN6P” value in data set [3] was under 1e-05 s⁻¹.

As to G43C A48U C50U C58A C67U, the “self-cleavage kobs at 40 uM GlcN6P” value in data set [1] was under 1e-05 s⁻¹. For the same variant, in data set [4], the “self-cleavage kobs at 640 uM GlcN6P” value is under 1e-05 s⁻¹.

U55G U57G C67U: the “self-cleavage kobs at 40 uM GlcN6P” value in data set [1] was under 1e-05 s⁻¹.

C8G G59U: in data set [1], the “self-cleavage kobs at 40 uM GlcN6P” value is under 1e-05 s⁻¹. Besides, the “self-cleavage kobs at 160 uM GlcN6P” value in data set [2] is under 1e-05 s⁻¹. In addition, the “self-cleavage kobs at 640 uM GlcN6P” value in data set [4] was under 1e-05 s⁻¹. The “self-cleavage kobs at 2500 uM GlcN6P” value in data set [5] was under 1e-05 s⁻¹.

Consider G7C C11U G29A G40A A42U G62U, for which the “self-cleavage kobs at 40 uM GlcN6P” value in data set [1] is under 1e-05 s⁻¹.

As to G32C U47C, the “self-cleavage kobs at 40 uM GlcN6P” value in data set [1] is under 1e-05 s⁻¹. The “self-cleavage kobs at 160 uM GlcN6P” value in data set [2] was under 1e-05 s⁻¹.

Turning to G41C A64C, the “self-cleavage kobs at 40 uM GlcN6P” value in data set [1] is under 1e-05 s⁻¹. Also, the “self-cleavage kobs at 160 uM GlcN6P” value in data set [2] was under 1e-05 s⁻¹. Further, the “self-cleavage kobs at 640 uM GlcN6P” value in data set [4] was under 1e-05 s⁻¹. Further, the “self-cleavage kobs at 2500 uM GlcN6P” value in data set [5] is under 1e-05 s⁻¹.

In the case of C10U G43C C50U C70U, the “self-cleavage kobs at 40 uM GlcN6P” value in data set [1] is under 1e-05 s⁻¹. Moreover, the “self-cleavage kobs at 2500 uM GlcN6P” value in data set [5] is under 1e-05 s⁻¹. The “self-cleavage kobs at 10000 uM GlcN6P” value in data set [3] was under 1e-05 s⁻¹.

As for C8G G37C, the “self-cleavage kobs at 40 uM GlcN6P” value in data set [1] was under 1e-05 s⁻¹. Further, the “self-cleavage kobs at 640 uM GlcN6P” value in data set [4] was under 1e-05 s⁻¹. For the same variant, in data set [3], the “self-cleavage kobs at 10000 uM GlcN6P” value was under 1e-05 s⁻¹.

For the variant G32U A42U C58U, the “self-cleavage kobs at 40 uM GlcN6P” value in data set [1] is under 1e-05 s⁻¹. Further, the “self-cleavage kobs at 10000 uM GlcN6P” value in data set [3] is 3.73e-05 ± 1.3e-05 s⁻¹.

Regarding G9A C50A U56C C67A, the “self-cleavage kobs at 40 uM GlcN6P” value in data set [1] was under 1e-05 s⁻¹. In addition, the “self-cleavage kobs at 640 uM GlcN6P” value in data set [4] is under 1e-05 s⁻¹. Further, in data set [5], the “self-cleavage kobs at 2500 uM GlcN6P” value is under 1e-05 s⁻¹.

Consider G40U C67U C70A, for which, in data set [1], the “self-cleavage kobs at 40 uM GlcN6P” value is under 1e-05 s⁻¹.

Turning to U47C C61U, the “self-cleavage kobs at 40 uM GlcN6P” value in data set [1] was under 1e-05 s⁻¹. Also, in data set [2], the “self-cleavage kobs at 160 uM GlcN6P” value was under 1e-05 s⁻¹. For the same variant, the “self-cleavage kobs at 640 uM GlcN6P” value in data set [4] was under 1e-05 s⁻¹. For the same variant, the “self-cleavage kobs at 2500 uM GlcN6P” value in data set [5] is under 1e-05 s⁻¹. Moreover, the “self-cleavage kobs at 10000 uM GlcN6P” value in data set [3] is under 1e-05 s⁻¹.

Regarding C11G U31C C34G U46A, the “self-cleavage kobs at 40 uM GlcN6P” value in data set [1] is under 1e-05 s⁻¹. Also, the “self-cleavage kobs at 10000 uM GlcN6P” value in data set [3] was under 1e-05 s⁻¹.

Regarding C16A C50G C68U, in data set [1], the “self-cleavage kobs at 40 uM GlcN6P” value was found to be 0.000143 ± 3.6e-05 s⁻¹. For the same variant, the “self-cleavage kobs at 10000 uM GlcN6P” value in data set [3] is 0.000227 ± 6.2e-05 s⁻¹.

U31G C50G C67U: the “self-cleavage kobs at 40 uM GlcN6P” value in data set [1] turned out to be 8.62e-05 ± 1.8e-05 s⁻¹. For the same variant, the “self-cleavage kobs at 10000 uM GlcN6P” value in data set [3] came to 0.000109 ± 2.3e-05 s⁻¹.

On to C16U U30A C58G A73U, for which the “self-cleavage kobs at 40 uM GlcN6P” value in data set [1] is under 1e-05 s⁻¹.

Take G37C G38A: the “self-cleavage kobs at 40 uM GlcN6P” value in data set [1] is under 1e-05 s⁻¹. In addition, in data set [2], the “self-cleavage kobs at 160 uM GlcN6P” value was under 1e-05 s⁻¹. Besides, the “self-cleavage kobs at 10000 uM GlcN6P” value in data set [3] is under 1e-05 s⁻¹.

Take U31A U49G C71U: the “self-cleavage kobs at 40 uM GlcN6P” value in data set [1] was under 1e-05 s⁻¹.

Regarding A12C G32A G44C, the “self-cleavage kobs at 40 uM GlcN6P” value in data set [1] was under 1e-05 s⁻¹. Further, the “self-cleavage kobs at 2500 uM GlcN6P” value in data set [5] was under 1e-05 s⁻¹.

For the variant G29C A33C U69A, the “self-cleavage kobs at 40 uM GlcN6P” value in data set [1] was under 1e-05 s⁻¹.

For the variant G7C G63C C68G U69A, the “self-cleavage kobs at 40 uM GlcN6P” value in data set [1] is under 1e-05 s⁻¹. In addition, the “self-cleavage kobs at 10000 uM GlcN6P” value in data set [3] was under 1e-05 s⁻¹.
